The values that follow come from doi:10.1101/2025.07.04.663185 (bioRxiv, 2025).

The test has as its target Cdc2-GFP (S. pombe, UniProt P04551 1-297). Put plainly: affinity purification with mass spectrometry.

Chain of Cdc2-GFP (P04551 whole entry): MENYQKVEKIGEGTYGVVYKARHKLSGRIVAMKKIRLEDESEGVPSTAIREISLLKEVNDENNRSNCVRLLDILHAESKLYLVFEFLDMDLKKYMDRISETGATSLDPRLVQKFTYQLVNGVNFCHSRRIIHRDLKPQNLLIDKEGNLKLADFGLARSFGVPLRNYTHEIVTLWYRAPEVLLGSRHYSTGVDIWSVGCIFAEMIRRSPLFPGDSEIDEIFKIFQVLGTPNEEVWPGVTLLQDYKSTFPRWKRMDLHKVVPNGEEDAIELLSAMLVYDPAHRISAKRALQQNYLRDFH

B1: Cdc25 (enzyme)
chain: MDSPLSSLSFTNTLSGKRNVLRPAARELKLMSDRNANQELDFFFPKSKHIASTLVDPFGKTCSTASPASSLAADMSMNMHIDESPALPTPRRTLFRSLSCTVETPLANKTIVSPLPESPSNDALTESYFFRQPASKYSITQDSPRVSSTIAYSFKPKASIALNTTKSEATRSSLSSSSFDSYLRPNVSRSRSSGNAPPFLRSRSSSSYSINKKKGTSGGQATRHLTYALSRTCSQSSNTTSLLESCLTDDTDDFELMSDHEDTFTMGKVADLPESSVELVEDAASIQRPNSDFGACNDNSLDDLFQASPIKPIDMLPKINKDIAFPSLKVRSPSPMAFAMQEDAEYDEQDTPVLRRTQSMFLNSTRLGLFKSQDLVCVTPKQSTKESERFISSHVEDLSLPCFAVKEDSLKRITQETLLGLLDGKFKDIFDKCIIIDCRFEYEYLGGHISTAVNLNTKQAIVDAFLSKPLTHRVALVFHCEHSAHRAPHLALHFRNTDRRMNSHRYPFLYYPEVYILHGGYKSFYENHKNRCDPINYVPMNDASHVMTCTKAMNNFKRNATFMRTKSYTFGQSVLASPDVNDSPTAMHSLSTLRRF
With B1, the “fold increase in association with Cdc2, suc1^ts versus suc1+ cells” value was determined as 3 fold.

B2: Wee1 (enzyme)
chain: MSSSSNTSSHRSYGLRRSQRSMNLNRATLLAPPTPSSLYDANNSTSSTSSQKPNTSFTSLFGPRKQTTSSPSFSHAAPLHPLSPPSFTHSQPQIQAQPVPRRPSLFDRPNLVSRSSSRLGDSPSLSPVAQVANPIHHTAPSPSDVRAFPIHKNASTGVKRSFFSSSMSNGAMSPPSHSPSPFLQSSQHIPPSTPAQKLRKKNNFDSFRISNSHISPFASGSFSPFATSSPNFLSTSTPAPPNSNNANPSTLFSSIPSSRHTTSNHFPSNSAQSSLFSPTARPLTARKLGFASSQTKSAVSNNHSRNSSKDASFMMKSFIPSNRSHPQTQQNESSLFSDNSMVNSSSNSFSLFPNATLPNPPSSELLTTPFQQIKPPSQVFMSTGLLSKQHRPRKNINFTPLPPSTPSKPSTFVRPHSSSTDSPPSPSTPSNTQTDSYFIQRENTPTNHNSIPTIQLEKSSMDFLRFDPPPSAVKTSHNYGLPFLSNQRCPATPTRNPFAFENTVSIHMDGRQPSPIKSRNNNQMSFAMEEEADVSQPSSSSFTLSFPSALTSSKVSSSTSHLLTRFRNVTLLGSGEFSEVFQVEDPVEKTLKYAVKKLKVKFSGPKERNRLLQEVSIQRALKGHDHIVELMDSWEHGGFLYMQVELCENGSLDRFLEEQGQLSRLDEFRVWKILVEVALGLQFIHHKNYVHLDLKPANVMITFEGTLKIGDFGMASVWPVPRGMEREGDCEYIAPEVLANHLYDKPADIFSLGITVFEAAANIVLPDNGQSWQKLRSGDLSDAPRLSSTDNGSSLTSSSRETPANSIIGQGGLDRVVEWMLSPEPRNRPTIDQILATDEVCWVEMRRKAGAIIYEGIHGSSSNPQGDQMMEDWQVNV
In the case of B2, the “fold increase in association with Cdc2, suc1^ts versus suc1+ cells” value is 2.5 fold.
